From the supplement of paper PMC10065799, “High-throughput profiling of sequence recognition by tyrosine kinases and SH2 domains using bacterial peptide display” (eLife, 2023) come the findings set out here.

The target of one data set is EPHB1 (UniProt P54762). The experiment in a line: phosphorylation enrichment, bacterial display (enrichment ratio); higher = better substrate or ligand; peptides without Tyr show the background.
Another data set has as its target Jak2 (UniProt O60674). The data set is described as above.
The target of another data set is Fes (UniProt P07332). The data set is described as above.
The target of another data set is FGFR3 (UniProt P22607). Described as above.
The target in a further data set is EPHB2 (UniProt P29323). The data set is described as above.
A further data set has as its target FGFR1 (UniProt P11362). Described as above.
In a further data set the target is Fyn (UniProt P06241). The data set is described as above.
Another data set addresses Hck (UniProt P08631). The data set is described as above.
The next data set concerns c-Abl (mouse). The data set is described as above.
A further data set addresses MERTK (UniProt Q12866). The data set is described as above.
For the next data set, the system named is c-Src. The description is as above.
A further data set has as its system AncSZ. The description is as above.
Another data set concerns Fer (mouse). The data set is described as above.
A further data set concerns the target SHP2-C SH2. The experiment in a line: SH2 binding enrichment of the phosphorylated peptide, bacterial display (enrichment ratio); higher = better substrate or ligand; peptides without Tyr show the background.
The target in a further data set is Grb2 SH2 (UniProt P62993). The data set is described as above.
Another data set has as its target c-Src SH2. The data set is described as above.
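For SH2 binding enrichment of the phosphorylated peptide, bacterial display in this document: peptide library displayed on the E. coli surface as eCPX fusions, selected cells deep-sequenced, score is each peptide's frequency after selection divided by its frequency in the input.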
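For phosphorylation enrichment, bacterial display in this document: 11-residue human phosphosite peptides and single-mutation variants displayed on the E. coli surface, counted by deep sequencing, each peptide's frequency after selection divided by its frequency in the unselected input library; frequency after pTyr selection over input frequency; kinase dosed for 20-30% of maximal phosphorylation in three min.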

Sequence of Hck (P08631 whole entry, looked up): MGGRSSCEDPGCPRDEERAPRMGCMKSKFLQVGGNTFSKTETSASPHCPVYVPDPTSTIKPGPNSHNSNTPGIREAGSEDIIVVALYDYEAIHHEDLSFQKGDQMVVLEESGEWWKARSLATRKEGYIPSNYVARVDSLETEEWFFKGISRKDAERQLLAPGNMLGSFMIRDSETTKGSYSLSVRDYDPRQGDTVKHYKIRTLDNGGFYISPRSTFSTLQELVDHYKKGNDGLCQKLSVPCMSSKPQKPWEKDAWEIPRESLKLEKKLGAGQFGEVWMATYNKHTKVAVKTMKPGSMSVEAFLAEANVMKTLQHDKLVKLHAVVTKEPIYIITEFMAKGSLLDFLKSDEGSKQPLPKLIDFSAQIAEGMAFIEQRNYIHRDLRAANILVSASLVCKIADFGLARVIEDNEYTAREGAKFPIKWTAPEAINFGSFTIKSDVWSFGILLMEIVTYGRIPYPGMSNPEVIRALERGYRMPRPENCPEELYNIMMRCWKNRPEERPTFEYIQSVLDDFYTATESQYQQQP
Sequence of FGFR3 (P22607 whole entry, looked up): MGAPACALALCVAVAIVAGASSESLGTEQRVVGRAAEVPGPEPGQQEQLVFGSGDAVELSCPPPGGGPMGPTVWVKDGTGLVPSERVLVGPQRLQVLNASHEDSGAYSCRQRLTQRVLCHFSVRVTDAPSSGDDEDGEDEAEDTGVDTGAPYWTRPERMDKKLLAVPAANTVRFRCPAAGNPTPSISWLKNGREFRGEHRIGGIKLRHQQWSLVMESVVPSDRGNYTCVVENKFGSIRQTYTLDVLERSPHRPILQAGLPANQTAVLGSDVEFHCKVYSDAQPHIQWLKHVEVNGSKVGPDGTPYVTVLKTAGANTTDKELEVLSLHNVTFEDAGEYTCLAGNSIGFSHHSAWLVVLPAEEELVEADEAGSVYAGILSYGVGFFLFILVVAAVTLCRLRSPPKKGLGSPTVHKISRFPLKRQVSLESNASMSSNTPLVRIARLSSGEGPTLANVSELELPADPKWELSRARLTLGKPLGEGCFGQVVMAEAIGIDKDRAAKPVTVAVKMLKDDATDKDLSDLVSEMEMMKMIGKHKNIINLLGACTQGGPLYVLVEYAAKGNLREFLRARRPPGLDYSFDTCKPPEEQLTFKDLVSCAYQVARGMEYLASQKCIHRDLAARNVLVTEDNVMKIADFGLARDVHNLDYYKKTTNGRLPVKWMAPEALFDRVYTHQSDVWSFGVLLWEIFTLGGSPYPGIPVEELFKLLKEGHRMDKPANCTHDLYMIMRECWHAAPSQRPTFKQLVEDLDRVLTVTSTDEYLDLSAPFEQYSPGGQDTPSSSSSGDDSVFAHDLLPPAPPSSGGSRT
Sequence of Jak2 (O60674 whole entry, looked up): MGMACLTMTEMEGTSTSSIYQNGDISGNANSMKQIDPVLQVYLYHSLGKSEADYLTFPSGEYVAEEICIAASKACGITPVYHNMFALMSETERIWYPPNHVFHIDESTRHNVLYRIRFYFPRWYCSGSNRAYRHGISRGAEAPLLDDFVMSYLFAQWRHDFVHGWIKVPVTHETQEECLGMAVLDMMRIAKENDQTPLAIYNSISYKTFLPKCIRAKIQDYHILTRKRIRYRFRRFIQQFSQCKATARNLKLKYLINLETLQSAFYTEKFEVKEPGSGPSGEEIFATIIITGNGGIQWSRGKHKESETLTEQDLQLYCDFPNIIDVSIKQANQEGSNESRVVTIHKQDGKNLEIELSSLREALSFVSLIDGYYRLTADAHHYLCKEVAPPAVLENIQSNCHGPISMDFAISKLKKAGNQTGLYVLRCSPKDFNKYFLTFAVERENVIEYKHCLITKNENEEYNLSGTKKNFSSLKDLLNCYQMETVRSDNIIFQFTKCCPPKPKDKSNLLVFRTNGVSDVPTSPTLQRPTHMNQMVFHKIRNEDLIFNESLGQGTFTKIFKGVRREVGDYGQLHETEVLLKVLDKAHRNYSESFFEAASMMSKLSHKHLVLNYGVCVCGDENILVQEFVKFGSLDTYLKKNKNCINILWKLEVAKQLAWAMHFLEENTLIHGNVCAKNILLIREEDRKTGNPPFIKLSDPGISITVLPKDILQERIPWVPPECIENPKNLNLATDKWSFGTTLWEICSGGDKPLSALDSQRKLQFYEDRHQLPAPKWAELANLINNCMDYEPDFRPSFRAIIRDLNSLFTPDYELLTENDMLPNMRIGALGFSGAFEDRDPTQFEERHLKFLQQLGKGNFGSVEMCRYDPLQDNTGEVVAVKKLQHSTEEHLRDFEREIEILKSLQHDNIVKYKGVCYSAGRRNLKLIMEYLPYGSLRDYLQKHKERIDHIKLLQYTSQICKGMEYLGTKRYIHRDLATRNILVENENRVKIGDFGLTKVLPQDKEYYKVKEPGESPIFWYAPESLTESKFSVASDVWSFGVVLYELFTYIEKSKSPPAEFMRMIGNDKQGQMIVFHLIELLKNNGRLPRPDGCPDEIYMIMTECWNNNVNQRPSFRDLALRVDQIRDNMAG
Sequence of FGFR1 (P11362 whole entry, looked up): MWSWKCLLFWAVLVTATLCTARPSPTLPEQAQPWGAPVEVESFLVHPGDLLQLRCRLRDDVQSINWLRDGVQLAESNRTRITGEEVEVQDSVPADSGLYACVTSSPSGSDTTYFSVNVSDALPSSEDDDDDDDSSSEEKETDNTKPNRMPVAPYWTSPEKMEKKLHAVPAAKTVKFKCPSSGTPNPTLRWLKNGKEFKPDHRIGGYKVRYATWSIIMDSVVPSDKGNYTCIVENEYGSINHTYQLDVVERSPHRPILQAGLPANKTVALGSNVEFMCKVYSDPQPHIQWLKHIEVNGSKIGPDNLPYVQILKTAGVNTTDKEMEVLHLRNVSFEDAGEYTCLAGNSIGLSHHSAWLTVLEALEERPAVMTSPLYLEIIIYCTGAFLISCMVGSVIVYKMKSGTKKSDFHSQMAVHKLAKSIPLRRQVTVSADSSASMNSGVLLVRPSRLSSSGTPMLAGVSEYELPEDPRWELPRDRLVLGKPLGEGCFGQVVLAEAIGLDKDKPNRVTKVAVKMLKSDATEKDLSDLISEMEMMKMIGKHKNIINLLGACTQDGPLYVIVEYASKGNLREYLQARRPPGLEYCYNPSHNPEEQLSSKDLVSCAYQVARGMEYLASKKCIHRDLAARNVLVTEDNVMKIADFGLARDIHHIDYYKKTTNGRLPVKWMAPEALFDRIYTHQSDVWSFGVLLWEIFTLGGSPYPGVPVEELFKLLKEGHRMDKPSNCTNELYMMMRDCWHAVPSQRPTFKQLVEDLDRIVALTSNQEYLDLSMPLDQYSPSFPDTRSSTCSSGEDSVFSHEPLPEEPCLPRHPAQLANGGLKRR
Sequence of MERTK (Q12866 whole entry, looked up): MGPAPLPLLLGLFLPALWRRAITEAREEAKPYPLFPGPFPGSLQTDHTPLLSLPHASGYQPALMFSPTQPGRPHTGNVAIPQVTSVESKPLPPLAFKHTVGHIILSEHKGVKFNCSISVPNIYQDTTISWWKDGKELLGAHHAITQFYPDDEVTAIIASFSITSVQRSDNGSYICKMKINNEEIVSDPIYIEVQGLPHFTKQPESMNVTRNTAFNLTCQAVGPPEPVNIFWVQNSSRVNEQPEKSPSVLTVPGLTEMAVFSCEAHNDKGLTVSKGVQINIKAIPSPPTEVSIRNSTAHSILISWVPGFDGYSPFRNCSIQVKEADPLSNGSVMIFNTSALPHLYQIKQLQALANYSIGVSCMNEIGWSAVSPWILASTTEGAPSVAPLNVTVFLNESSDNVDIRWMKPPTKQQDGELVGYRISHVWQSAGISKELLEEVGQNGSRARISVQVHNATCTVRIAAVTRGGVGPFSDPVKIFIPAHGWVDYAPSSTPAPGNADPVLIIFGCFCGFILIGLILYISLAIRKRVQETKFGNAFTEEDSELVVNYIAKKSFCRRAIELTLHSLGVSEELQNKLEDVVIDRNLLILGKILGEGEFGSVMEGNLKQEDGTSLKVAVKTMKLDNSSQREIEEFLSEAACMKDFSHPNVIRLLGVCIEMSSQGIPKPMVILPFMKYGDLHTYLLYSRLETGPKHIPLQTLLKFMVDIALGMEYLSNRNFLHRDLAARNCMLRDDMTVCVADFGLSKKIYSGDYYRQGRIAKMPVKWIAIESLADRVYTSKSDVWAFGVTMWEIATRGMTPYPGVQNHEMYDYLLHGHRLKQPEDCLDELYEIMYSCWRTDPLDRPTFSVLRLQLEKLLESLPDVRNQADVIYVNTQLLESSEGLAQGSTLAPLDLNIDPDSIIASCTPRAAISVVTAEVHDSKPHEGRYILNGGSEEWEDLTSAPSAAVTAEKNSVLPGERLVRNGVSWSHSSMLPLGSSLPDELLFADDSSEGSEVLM
Sequence of Grb2 SH2 (P62993 whole entry, looked up): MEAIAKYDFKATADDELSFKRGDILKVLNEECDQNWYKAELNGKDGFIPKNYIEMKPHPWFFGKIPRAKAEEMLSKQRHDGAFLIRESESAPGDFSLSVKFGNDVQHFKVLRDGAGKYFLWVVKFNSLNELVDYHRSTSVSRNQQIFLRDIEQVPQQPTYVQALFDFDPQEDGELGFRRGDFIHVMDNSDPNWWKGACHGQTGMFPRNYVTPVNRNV
Sequence of Fyn (P06241 whole entry, looked up): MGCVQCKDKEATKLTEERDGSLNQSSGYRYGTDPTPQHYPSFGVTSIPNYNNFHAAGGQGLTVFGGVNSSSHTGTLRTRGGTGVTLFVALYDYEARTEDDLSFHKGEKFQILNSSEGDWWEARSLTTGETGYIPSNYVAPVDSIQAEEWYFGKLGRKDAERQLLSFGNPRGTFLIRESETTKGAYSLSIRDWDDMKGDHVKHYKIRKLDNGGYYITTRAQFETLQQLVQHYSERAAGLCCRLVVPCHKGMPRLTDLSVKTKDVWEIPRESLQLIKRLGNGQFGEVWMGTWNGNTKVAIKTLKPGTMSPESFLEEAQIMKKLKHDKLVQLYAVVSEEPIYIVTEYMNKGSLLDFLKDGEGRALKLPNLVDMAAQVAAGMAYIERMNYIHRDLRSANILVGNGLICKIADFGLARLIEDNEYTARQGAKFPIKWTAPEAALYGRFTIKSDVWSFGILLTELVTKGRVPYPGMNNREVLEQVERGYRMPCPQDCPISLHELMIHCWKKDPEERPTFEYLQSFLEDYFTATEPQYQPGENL

EKQARYEIVEE [CDH5_Y223_V227E]: the phosphorylation enrichment amounted to 0.582 in the data set with EPHB1; 1.09 in the data set with Jak2; 1.24 in the data set with Fes; 0.798 with FGFR3; 0.565 with EPHB2; 0.506 with FGFR1. The phosphorylation enrichment came out at 0.542 with Fyn; 0.667 with Hck; 0.749 in the data set on c-Abl (mouse); 0.644 in the data set with MERTK; 0.521 in the data set on c-Src; 1.2 in the data set on AncSZ. Moreover, in the data set with Fer (mouse), the phosphorylation enrichment stood at 0.56. The values for the SH2 binding enrichment with SHP2-C SH2, in the data set with Grb2 SH2 and with c-Src SH2 were 0.921, 0.897 and 18.8, respectively.
As for AIYWRYSKFFD [SH3PXD2B_Y45_R43W], the phosphorylation enrichment in the data set with EPHB1 was 0.982; in the data set with Jak2, 1.07; with Fes it was 1.05; in the data set with FGFR3, 0.804; with EPHB2, 0.681; with FGFR1 it was 0.57. Moreover, the phosphorylation enrichment with Fyn came out at 1.49; with Hck it was 0.886; in the data set on c-Abl (mouse) it was 1.1; with MERTK, 0.421; in the data set with c-Src, 0.97; with AncSZ it was 1.3. Besides, the phosphorylation enrichment in the data set with Fer (mouse) turned out to be 0.526. Moreover, the figures for the SH2 binding enrichment with SHP2-C SH2, with Grb2 SH2 and with c-Src SH2 were 0.645, 0.794 and 0.466, respectively.
For the sequence SLAARYYNWVS [FLT4_Y1230], the phosphorylation enrichment in the data set with EPHB1 turned out to be 0.756; with Jak2 it was 1.48; with Fes it was 1.15; with FGFR3, 3.55; in the data set with EPHB2, 0.83; with FGFR1 it was 5.38. Besides, the phosphorylation enrichment worked out at 0.512 with Fyn; 0.569 in the data set with Hck; 0.933 in the data set on c-Abl (mouse); 5.97 with MERTK; 0.746 in the data set with c-Src; 1.06 with AncSZ. For the same sequence, in the data set with Fer (mouse), the phosphorylation enrichment amounted to 0.817. Also, the SH2 binding enrichment came to 2.19 with SHP2-C SH2, 14.2 with Grb2 SH2 and 3.84 with c-Src SH2.
On to QQTFTYDSGIH [JUP_Y22_YF], for which the phosphorylation enrichment with EPHB1 worked out at 1.35; with Jak2, 0.985; with Fes, 1.78; in the data set with FGFR3, 1.42; with EPHB2, 1.33; with FGFR1, 0.984. For the same sequence, the phosphorylation enrichment in the data set with Fyn is 1.18; in the data set with Hck it was 1.85; in the data set with c-Abl (mouse), 0.999; in the data set with MERTK, 0.793; with c-Src it was 0.95; in the data set on AncSZ, 1.8. Moreover, the phosphorylation enrichment with Fer (mouse) worked out at 0.896. Besides, the SH2 binding enrichment with SHP2-C SH2 was 0.809; with Grb2 SH2, 0.673; in the data set with c-Src SH2 it was 0.563.
On to ANFTEYVATRW [CDKL5_Y171_YF], for which the phosphorylation enrichment with EPHB1 turned out to be 0.834; in the data set with Jak2, 0.781; with Fes it was 0.947; with FGFR3, 0.814; with EPHB2, 0.922; in the data set with FGFR1, 0.707. The phosphorylation enrichment is 0.57 with Fyn; 0.523 with Hck; 0.682 in the data set on c-Abl (mouse); 0.49 with MERTK; 0.466 with c-Src; 0.977 with AncSZ. Also, the phosphorylation enrichment with Fer (mouse) was found to be 0.515. The results for the SH2 binding enrichment with SHP2-C SH2, with Grb2 SH2 and with c-Src SH2 were 0.595, 0.806 and 0.523, respectively.
As to LFHENYNAGTY [CFI_Y421_I416L], the phosphorylation enrichment in the data set with EPHB1 was 0.521; with Jak2, 0.976; with Fes it was 1.1; with FGFR3 it was 0.633; in the data set with EPHB2, 0.626; with FGFR1, 0.78. The phosphorylation enrichment in the data set with Fyn was 0.605; with Hck, 0.527; in the data set with c-Abl (mouse), 1.22; with MERTK, 0.537; in the data set on c-Src, 1.3; in the data set with AncSZ, 1.06. Further, in the data set with Fer (mouse), the phosphorylation enrichment was 0.822. In addition, the SH2 binding enrichment in the data set with SHP2-C SH2 amounted to 0.818; with Grb2 SH2, 0.9; in the data set with c-Src SH2, 0.704.
Turning to PGIRMYRVQFN [LRFN1_Y454_Q455R_YF], the phosphorylation enrichment with EPHB1 worked out at 0.468; in the data set with Jak2, 0.844; with Fes, 1.14; with FGFR3 it was 0.618; in the data set with EPHB2, 0.642; with FGFR1, 0.622. Moreover, the phosphorylation enrichment with Fyn was 0.656; with Hck, 0.485; in the data set with c-Abl (mouse), 0.512; in the data set with MERTK, 0.652; in the data set with c-Src it was 0.607; with AncSZ, 1.35. Besides, in the data set on Fer (mouse), the phosphorylation enrichment was 0.611. The SH2 binding enrichment in the data set with SHP2-C SH2 worked out at 0.606; with Grb2 SH2 it was 0.796; in the data set with c-Src SH2 it was 0.469.
LNECHYGALIG [BPGM_Y92_R90C]: the phosphorylation enrichment with EPHB1 worked out at 0.682; with Jak2, 0.885; with Fes, 1.38; with FGFR3 it was 0.886; with EPHB2, 0.878; with FGFR1 it was 0.701. In addition, the phosphorylation enrichment is 4.07 with Fyn; 2.93 with Hck; 1.4 in the data set with c-Abl (mouse); 0.741 with MERTK; 3.61 in the data set on c-Src; 0.996 in the data set on AncSZ. Besides, the phosphorylation enrichment in the data set with Fer (mouse) was found to be 1.35. For the same sequence, the SH2 binding enrichment with SHP2-C SH2 worked out at 0.446; in the data set with Grb2 SH2, 0.681; in the data set with c-Src SH2, 0.334.
